Assay results: PMC13107026, “Intestinal epithelial C/EBPβ deficiency impairs colitis-associated tumorigenesis by disrupting CXCL1/CXCL2/CXCL5-CXCR2-mediated neutrophil infiltration”

Columns and labels:
C/EBPβ [1] = molecular target: T1, C/EBPβ (Homo sapiens, UniProt P17676 1-345); assay: competition; 100-fold molar excess vs biotin CXCL1 WT probe; LightShift Chemiluminescent EMSA kit; 6% native polyacrylamide gel, 0.5x TBE, 100 V, 60 min; binding buffer, salt, pH and temperature not stated; conditions: protein: recombinant; chain copies: 2; label: unlabeled; blunt
C/EBPβ [2] = molecular target: T1, C/EBPβ; assay: EMSA, competition, supershift; LightShift Chemiluminescent EMSA kit; 6% native polyacrylamide gel, 0.5x TBE, 100 V, 60 min; binding buffer, salt, pH and temperature not stated; conditions: protein: recombinant; chain copies: 2; label: biotin (5' of both strands); blunt
C/EBPβ [3] = molecular target: T1, C/EBPβ; assay: competition; 100-fold molar excess vs biotin CXCL5 WT probe; LightShift Chemiluminescent EMSA kit; 6% native polyacrylamide gel, 0.5x TBE, 100 V, 60 min; binding buffer, salt, pH and temperature not stated; conditions: protein: recombinant; chain copies: 2; label: unlabeled; blunt
C/EBPβ [4] = molecular target: T1, C/EBPβ; assay: competition; 100-fold molar excess vs biotin CXCL2 WT probe; LightShift Chemiluminescent EMSA kit; 6% native polyacrylamide gel, 0.5x TBE, 100 V, 60 min; binding buffer, salt, pH and temperature not stated; conditions: protein: recombinant; chain copies: 2; label: unlabeled; blunt

T1 sequence (P17676 whole entry): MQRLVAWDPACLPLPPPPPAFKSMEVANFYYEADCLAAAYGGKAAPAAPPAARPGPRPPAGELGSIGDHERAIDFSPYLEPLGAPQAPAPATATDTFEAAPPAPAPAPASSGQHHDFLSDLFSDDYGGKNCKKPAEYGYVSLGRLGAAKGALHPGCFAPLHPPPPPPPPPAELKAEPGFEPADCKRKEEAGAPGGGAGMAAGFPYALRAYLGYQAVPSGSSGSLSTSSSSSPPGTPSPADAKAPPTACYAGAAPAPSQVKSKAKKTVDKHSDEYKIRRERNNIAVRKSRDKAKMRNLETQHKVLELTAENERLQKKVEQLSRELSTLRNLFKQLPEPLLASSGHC

Row | Binder | binding result (C/EBPβ [2]) | further results
1 | CXCL1 MUT probe (dsDNA) DNA 1: TGGAAACGGTCCCCACCCCT DNA 2: AGGGGTGGGGACCGTTTCCA |  | binding result (C/EBPβ [1]): no binding
2 | CXCL5 WT probe (dsDNA) DNA 1: CACTGTCTTGCTCCATGGCAG DNA 2: CTGCCATGGAGCAAGACAGTG | binds | 
3 | CXCL5 MUT probe (dsDNA) DNA 1: CACTGTCAATTTTTATGGCAG DNA 2: CTGCCATAAAAATTGACAGTG |  | binding result (C/EBPβ [3]): no binding
4 | CXCL2 MUT probe (dsDNA) DNA 1: TAGAAGTGGTAGGGTCTCCTCTTACTGATA DNA 2: TATCAGTAAGAGGAGACCCTACCACTTCTA |  | binding result (C/EBPβ [4]): no binding
5 | CXCL2 WT probe (dsDNA) DNA 1: TAGAAGTGGTGTTTCACAACCTTACTGATA DNA 2: TATCAGTAAGGTTGTGAAACACCACTTCTA | binds | 
6 | CXCL1 WT probe (dsDNA) DNA 1: TGGAACTTTCAAAATCCCCT DNA 2: AGGGGATTTTGAAAGTTCCA | binds | 
